Measurements taken from the Immune Epitope Database (IEDB).
pIC50, pKd: −log10 of the molar value.

Columns and labels:
Conditions in all cases: source organism: Hepatitis B virus
[1] = biological target: HLA-A*03:01; experiment: IEDB peptide-MHC binding, purified MHC/competitive/radioactivity; ≥ and ≤ were set here for values at or beyond the usual limits of such assays
[2] = biological target: HLA-A*31:01; experiment: IEDB peptide-MHC binding, purified MHC/competitive/radioactivity; filed as Kd, often an IC50 or EC50 that approximates it; ≥ and ≤ were set here for values at or beyond the usual limits of such assays
[3] = biological target: HLA-A*33:01; experiment: as above
[4] = biological target: HLA-A*68:01; experiment: as above
[5] = biological target: HLA-A*02:03; experiment: as above
[6] = biological target: HLA-A*02:06; experiment: as above
[7] = biological target: HLA-B*51:01; experiment: as above
[8] = biological target: HLA-B*35:01; experiment: IEDB peptide-MHC binding, purified MHC/competitive/radioactivity; ≥ and ≤ were set here for values at or beyond the usual limits of such assays
[9] = biological target: HLA-B*51:01; experiment: as above
[10] = biological target: HLA-B*53:01; experiment: as above
[11] = biological target: HLA-A*03:01; experiment: IEDB peptide-MHC binding, purified MHC/competitive/radioactivity; filed as Kd, often an IC50 or EC50 that approximates it; ≥ and ≤ were set here for values at or beyond the usual limits of such assays
[12] = biological target: HLA-A*68:01; experiment: IEDB peptide-MHC binding, purified MHC/competitive/radioactivity; ≥ and ≤ were set here for values at or beyond the usual limits of such assays

Sequence	pKd [2]	pKd [3]	pKd [4]	other results
GTDNSVVLSRK	≤ 4.60	≤ 4.60	≤ 4.60	pIC50 [1]: 6.10
RVTGGVFLVDK	≤ 4.60	≤ 4.60	≤ 4.60	pIC50 [1]: 6.24
YMDDVVLGAK	≤ 4.60	≤ 4.60	≤ 4.60	
MMWYWGPSLY	≤ 4.60	≤ 4.60	≤ 4.60	
YMDDVVLGA				pKd [5]: 5.38; pKd [6]: ≤ 4.60
DPSRGRLGL				pKd [7]: ≤ 4.60
TLWKAGILY		≤ 4.60	≤ 4.60	
YPALMPLYA				pIC50 [8]: 6.82; pIC50 [9]: 6.79; pIC50 [10]: 6.18
VTGGVFLVDK	≤ 4.60			
GTDNSVVLSR			≤ 4.70	pKd [11]: ≤ 5.00
KVGNFTGLY	≤ 4.60	≤ 4.60	≤ 4.60	
PVNRPIDWK	≤ 4.60	≤ 4.60		
GLLGWSPQA				pKd [6]: 5.88
VVDFSQFSR				pIC50 [12]: 6.49
TPARVTGGVF				pKd [7]: ≤ 4.60
HTLWKAGILY	≤ 4.60			
IPIPSSWAF				pIC50 [8]: 8.59; pIC50 [9]: 6.66
